The text below walks through data of patent US20090104178A1 (published 2009).

First the molecules themselves.
B1: hCXCL13 (ligand)
chemokine: VLEVYYTSLRCRCVQESSVFIPRRFIDRIQILPRGNGCPRKEIIVWKKNKSIVCVDPQAEWIQRMMEVLRKRSSSTLPVPVFKRKIP
B2: mCXCL14 (ligand)
chain: SKCKCSRKGPKIRYSDVKKLEMKPKYPHCEEKMVIVTTKSMSRYRGQEHCLHPKLQSTKRFIKWYNAWNEKRRVYEE
B3: hCXCL14 (ligand)
chemokine: SKCKCSRKGPKIRYSDVKKLEMKPKYPHCEEKMVIITTKSVSRYRGQEHCLHPKLQSTKRFIKWYNAWNEKRRVYEE
B4: mCCL25 (ligand)
chain: QGAFEDCCLGYQHRIKWNVLRHARNYHQQEVSGSCNLRAVRFYFRQKVVCGNPEDMNVKRAMRILTARKRLVHWKSASDSQTERKKSNHMKSKVENPNSTSVRSATLGHPRMVMMPRKTNN
B5: mCCL27 (ligand)
chain: LPLPSSTSCCTQLYRQPLPSRLLRRIVHMELQEADGDCHLQAVVLHLARRSVCVHPQNRSLARWLERQGKRLQGTVPSLNLVLQKKMYSHPQQQN
B6: hCCL28 (ligand)
chemokine: SEAILPIASSCCTEVSHHISRRLLERVNMCRIQRADGDCDLAAVILHVKRRRICVSPHNHTVKQWMKVQAAKKNGKGNVCHRKKHHGKRNSNRAHQGKHETYGHKTPY

The experiment concerns the target Purified recombinant EV CrmD protein (ectromelia virus).
B1: the Kd came to 7.4 nM.

In the case of B2, the Kd worked out at 3.2 nM.

On to B3, for which the Kd was found to be 7.1 nM.

With B4, the dissociation constant (Kd) was 3.2 nM.

Consider B5, for which the Kd worked out at 8.5 nM.

For the molecule B6, the equilibrium dissociation constant (Kd) was found to be 2.8 nM.

What is called Kd is the constant that tells how readily two partners part at equilibrium.
